According to publication PMC3269379, “The Host-Pathogen interaction of human cyclophilin A and HIV-1 Vpr requires specific N-terminal and novel C-terminal domains” (BMC Structural Biology, 2011):
Read-outs that look alike come from different tables or passages of the source.

Target: human cyclophilin A (human) (UniProt P62937)
Assay: SPR

human cyclophilin A (human), sequence (P62937 whole entry): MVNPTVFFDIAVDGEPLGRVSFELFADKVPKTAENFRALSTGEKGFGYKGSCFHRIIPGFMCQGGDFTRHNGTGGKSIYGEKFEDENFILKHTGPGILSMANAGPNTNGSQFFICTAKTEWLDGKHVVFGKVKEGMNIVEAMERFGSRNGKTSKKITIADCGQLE
HIV-1 capsid (CA), sequence (O93182 133-363): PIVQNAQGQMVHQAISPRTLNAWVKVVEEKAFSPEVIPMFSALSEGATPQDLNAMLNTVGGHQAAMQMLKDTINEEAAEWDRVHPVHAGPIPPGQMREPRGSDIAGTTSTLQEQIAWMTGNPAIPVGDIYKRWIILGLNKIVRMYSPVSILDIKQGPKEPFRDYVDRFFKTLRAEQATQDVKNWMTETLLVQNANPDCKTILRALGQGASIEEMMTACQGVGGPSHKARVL

Substance	Kd (cited from earlier work)	Kd	koff	kon
HIV-1 capsid (CA) (from UniProt O93182)	16 µM	–	–	–
Vpr^75-90 (R76Q, V83I, R80A, T84I) (peptide)	–	2.7 µM	0.095 s⁻¹	42000 M⁻¹ s⁻¹
Vpr^75-90 (R76Q, V83I, T84I) (peptide)	–	4.7 µM	0.071 s⁻¹	16000 M⁻¹ s⁻¹
